In US20250092124A1 (YUNNAN BAIYAO GROUP, published 2025):

Key:
[1] = molecular target: T1, GDF15-HIS (ACROBiosystems, CAT #: GD5-H5149) (human, UniProt Q99988 197-308); assay: cell-based or functional assay
T1 sequence (looked up): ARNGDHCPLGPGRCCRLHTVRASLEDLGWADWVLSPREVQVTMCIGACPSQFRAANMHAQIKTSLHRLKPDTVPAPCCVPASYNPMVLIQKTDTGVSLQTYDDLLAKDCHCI

[2] = molecular target: T1, GDF15-HIS (ACROBiosystems, CAT #: …); assay: ELISA in stability test, antibody after 5 freeze-thaw cycles; coated antigen not named
Procedure: An appropriate amount of each antibody was taken and adjusted to 10 mg/mL, followed by freezing at −80° C. for 10 min, and placing in an ice-water mixture to slowly thaw. The above procedure was repeated 5 times. Protein aggregation was detected using SEC-HPLC, and protein binding activity change was detected by ELISA.

GDF15-mFC protein = molecular target: T2, GDF15-mFC protein (human; mouse, UniProt Q99988 197-308); assay: blocking ELISA as in Example 4, GFRAL-hIgG1 Fc coated (competitor), GDF15-mFC mixed with antibody
T2 construct: extracellular domain;domain: IgG2a-FC; also called GDF15-mFc fusion protein
T2 sequence (looked up): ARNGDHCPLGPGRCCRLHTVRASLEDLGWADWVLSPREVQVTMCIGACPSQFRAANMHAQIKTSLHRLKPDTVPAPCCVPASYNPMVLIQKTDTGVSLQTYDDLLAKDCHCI
Procedure: A fusion protein comprising the extracellular region of GFRAL protein (Genbank accession number NM_207410.2) and human IgG1-FC (Genbank accession number CAC20454.1) was diluted to […] with coating solution, followed by adding to ELISA plate at 50 μl/well and incubating at 4° C. overnight. The solution in the wells was discarded and the plate was washed 3 times with washing solution, each time for 3-5 minutes, and dried via tapping. 200 μl of blocking solution was added to each well followed by incubating at 4° C. overnight. The plate was washed 3 times with washing solution, and the coated plate may be stored at −20° C. or 4° C. for future use.
The antibodies to be tested, positive control antibody AV380-mIgG1 and blank control (PBS) were added to the wells. […] At the same time, GDF15-mFC protein (GDF15: Genbank accession number NM_004864.3; mFC: Genbank accession number AAH31470.1) was added at 20 ng/well and mixed with the antibodies to be tested. The wells were incubated at 37° C. for 1 hour, washed, and dried via tapping. Then the enzyme-labeled secondary antibody, horseradish peroxidase-labeled goat anti-mouse IgG (SIGMA, catalog number A9044-2 ml) was added to each well, at a dilution of 1:10000, 50-100 μl/well. The wells were incubated at 37° C. for 2 hours, washed, and dried via tapping. 100 μl of freshly prepared developing solution TMB was added to each well and incubated at 37° C. for 30 minutes. 2 mol/L H₂SO₄ was added to terminate the reaction, and the OD value was obtained on an enzyme-linked immunosorbent reader.
(§1) The experiment was performed as detailed in Example 4, except that the antibodies to be tested (the humanized antibodies), negative control antibody (hIgG1), and positive control antibodies Ponsegromab and AV380-hIgG1 were added to each well of the coated plate.

cynoGDF15-mFC = molecular target: T3, cynoGDF15-mFC (monkey (cyno); mouse, UniProt G7PWZ3 197-308); assay: ELISA, cynoGDF15-mFC coated
T3 construct: also called monkey GDF15 (cynoGDF15)
T3 sequence (looked up): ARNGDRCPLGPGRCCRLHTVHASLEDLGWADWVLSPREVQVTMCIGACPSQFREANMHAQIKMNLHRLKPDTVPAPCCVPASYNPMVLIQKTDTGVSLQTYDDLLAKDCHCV
Procedure: as §1, with “2,” for “4,”, “that the coating protein was cynoGDF15-mFC (GDF15: Genbank accession number EHH29815.1; mFC: Genbank accession number AAH31470.1), and” for “that”

[3] = molecular target: T1, GDF15-HIS (ACROBiosystems, CAT #: …); assay: cell-based or functional assay; remark: listed apart in the source
[4] = molecular target: T1, GDF15-HIS (ACROBiosystems, CAT #: …); assay: ELISA in stability test, antibody after pH 3.6 for 2-4 h; coated antigen not named
Procedure: An appropriate amount of each antibody was taken and adjusted to 5 mg/mL in storage buffer adjusted to pH 3.6 using an ultrafiltration tube. The antibodies were placed at room temperature for 2-4 hours, then protein aggregation was detected using SEC-HPLC, and protein binding activity change was detected by ELISA.

[5] = molecular target: T1, GDF15-HIS (ACROBiosystems, CAT #: …); assay: ELISA in stability test, antibody after 40 °C for 2 weeks; coated antigen not named
Procedure: (§2) An appropriate amount of each antibody was taken and adjusted to 10 mg/mL, and was placed at 40° C. for 1 and 2 weeks. Protein aggregation was detected using SEC-HPLC, and protein binding activity change was detected by ELISA.

[6] = molecular target: T1, GDF15-HIS (ACROBiosystems, CAT #: …); assay: ELISA in stability test, antibody after 40 °C for 1 week; coated antigen not named
Procedure: as §2

GDF3 (R&D, 5754-G3-010) = molecular target: T4, GDF3 (R&D, 5754-G3-010) (UniProt Q9NR23 251-364); assay: ELISA, GDF3 coated at 1 µg/ml, HRP-anti-human IgG
T4 sequence (looked up): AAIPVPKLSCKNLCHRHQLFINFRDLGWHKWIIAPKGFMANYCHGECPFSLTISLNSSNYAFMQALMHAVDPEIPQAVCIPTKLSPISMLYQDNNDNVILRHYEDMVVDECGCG
Procedure: GDF15 (ACROBiosystems, GDS-HS149), GDF1 (R&D, 6937-GD-010), and GDF3 (R&D, 5754-G3-010) proteins were dissolved in PBS at a concentration of 1 μg/ml and were used to coat ELISA 96-well plate. On the next day, the 96-well plate was blocked with 2% BSA in PBS for 1 hour. After removing the blocking solution, GDF15 antibody 53E5 (hz), control antibody Ponsegromab and irrelevant hIgG1 were added at 4 μg/ml. After incubation at room temperature for 1 hour, the plate was washed, and then HRP-anti-human IgG was added. After incubation at room temperature for 1 hour, the HRP enzyme activity signal (OD450) was detected. The OD450 value is the relative signal of the antibody binding amount.

Bottom (luciferase activity fold, fitted curve), HEK293 SRE-LUC2-cRET-GFRAL reporter cells [1]: 1.1
IC50, luciferase in HEK293 SRE-LUC2-cRET-GFRAL reporter cells stimulated with GDF15-His 5 ng/ml [1]: 0.0225 µg/mL
EC50 [2]: 0.0648 µg/mL
IC50 (GDF15-mFC protein): 0.253 µg/mL
OD450.Max (GDF15-mFC protein): 1.05 OD450
EC50 (cynoGDF15-mFC): 0.0816 µg/mL
OD450.Max (cynoGDF15-mFC): 1.03 OD450
EC50 (read off the curve) of GDF15-His for luciferase induction with 0.1 µg/ml antibody present [3]: ~0.02 µg/mL
EC50 [4]: 0.0699 µg/mL
EC50 [5]: 0.0573 µg/mL
EC50 [6]: 0.0641 µg/mL
binding result (GDF3 (R&D, 5754-G3-010)): no binding (tested: 4 µg/ml)
B1: 53E5(hz) (antibody, human IgG1, kappa, V domains shown)
VH: QVQLQESGPGLVKPSETLSLTCTFSGFSLSTSGMGVGWIRQPPGKGLEWLAHILWDDVKRYNPALKSRLTISKDSSKSQISLKLSSVTAADTAVYYCVQMAWDWFAYWGQGTTVTVSS
VL: DIQMTQSPSSLSASVGDRVTITCKASQNVDTNVAWYQQKPGQSPKALIYSASYRSSGVPSRFSGSGSGTDFTLTISSLQPEDFATYYCQQYHSYPTFGQGTRLEIKR
notes: also called S3E5 (hz); humanized antibody 53E5
